According to patent publication US20240209076A1 (KODIAK SCIENCES, published 2024):
Substitutions are numbered along the chain they refer to. In names and notes the source's numbering stands.

B1: anti-IL-6 antibody, heavy chain T65V, G66D / light chain M32L, M50D, N52S, M88Q (antibody, human IgG1, V domains shown)
VH: EVQLVESGGGLVQPGGSLRLSCAASGFTFSPFAMSWVRQAPGKGLEWVAKISPGGSWTYYSDTVVDRFTFSLDTSKSTAYLQMNSLRAEDTAVYYCARQLWGYYALDIWGQGTLVTVSS
VL: DIQLTQSPSSLSASVGDRVTITCSASISVSYLYWYQQKPGKAPKLLIYDDSSLASGVPSRFSGSGSGTDFTLTISSLQPEDFATYYCQQWSGYPYTFGQGTKVEIK
notes: Human IgG1
B2: anti-IL-6 antibody, heavy chain T65S, G66D / light chain M32L, M50D, N52S, M88Q (antibody, human IgG1, V domains shown)
VH: B1 VH with V65S
VL: B1 VL
notes: Human IgG1
B3: anti-IL-6 antibody, heavy chain T65W, G66D / light chain M32L, M50D, N52S, M88Q (antibody, human IgG1, V domains shown)
VH: B1 VH with V65W
VL: B1 VL
notes: Human IgG1
B4: anti-IL-6 antibody, heavy chain T65Y, G66D / light chain M32L, M50D, N52S, M88Q (antibody, human IgG1, V domains shown)
VH: B1 VH with V65Y
VL: B1 VL
notes: Human IgG1
B5: anti-IL-6 Fab, parental molecule (Fab, V domains shown)
VH: B1 VH with V65T, D66G
VL: B1 VL with L32M, D50M, S52N, Q88M
notes: Fab expressed in E. coli TG1, tested as filtered lysate; also called wild-type; parent molecule
B6: anti-IL-6 Fab, heavy chain F27P (Fab, V domains shown)
VH: B1 VH with F27P, V65T, D66G
VL: B1 VL with L32M, D50M, S52N, Q88M
notes: see m39
B7: anti-IL-6 Fab, heavy chain A49S (Fab, V domains shown)
VH: B1 VH with A49S, V65T, D66G
VL: B1 VL with L32M, D50M, S52N, Q88M
notes: see m39
B8: anti-IL-6 Fab, heavy chain S30G (Fab, V domains shown)
VH: B1 VH with S30G, V65T, D66G
VL: B1 VL with L32M, D50M, S52N, Q88M
notes: see m39
B9: anti-IL-6 Fab, heavy chain S56H (Fab, V domains shown)
VH: B1 VH with S56H, V65T, D66G
VL: B1 VL with L32M, D50M, S52N, Q88M
notes: see m39
B10: anti-IL-6 Fab, heavy chain F32G (Fab, V domains shown)
VH: B1 VH with F32G, V65T, D66G
VL: B1 VL with L32M, D50M, S52N, Q88M
notes: see m39
B11: anti-IL-6 Fab, heavy chain M34W (Fab, V domains shown)
VH: B1 VH with M34W, V65T, D66G
VL: B1 VL with L32M, D50M, S52N, Q88M
notes: see m39
B12: anti-IL-6 Fab, heavy chain G26R (Fab, V domains shown)
VH: B1 VH with G26R, V65T, D66G
VL: B1 VL with L32M, D50M, S52N, Q88M
notes: see m39
B13: anti-IL-6 Fab, heavy chain G26S (Fab, V domains shown)
VH: B1 VH with G26S, V65T, D66G
VL: B1 VL with L32M, D50M, S52N, Q88M
notes: see m39
B14: anti-IL-6 Fab, heavy chain F27R (Fab, V domains shown)
VH: B1 VH with F27R, V65T, D66G
VL: B1 VL with L32M, D50M, S52N, Q88M
notes: see m39
B15: anti-IL-6 Fab, heavy chain S30W (Fab, V domains shown)
VH: B1 VH with S30W, V65T, D66G
VL: B1 VL with L32M, D50M, S52N, Q88M
notes: see m39
B16: anti-IL-6 Fab, heavy chain F32V (Fab, V domains shown)
VH: B1 VH with F32V, V65T, D66G
VL: B1 VL with L32M, D50M, S52N, Q88M
notes: see m39
B17: anti-IL-6 Fab, heavy chain F27S (Fab, V domains shown)
VH: B1 VH with F27S, V65T, D66G
VL: B1 VL with L32M, D50M, S52N, Q88M
notes: see m39
B18: anti-IL-6 Fab, heavy chain F27G (Fab, V domains shown)
VH: B1 VH with F27G, V65T, D66G
VL: B1 VL with L32M, D50M, S52N, Q88M
notes: see m39
B19: anti-IL-6 Fab, heavy chain S35H (Fab, V domains shown)
VH: B1 VH with S35H, V65T, D66G
VL: B1 VL with L32M, D50M, S52N, Q88M
notes: see m39
B20: anti-IL-6 Fab, heavy chain A49T (Fab, V domains shown)
VH: B1 VH with A49T, V65T, D66G
VL: B1 VL with L32M, D50M, S52N, Q88M
notes: see m39
B21: anti-IL-6 Fab, heavy chain F29H (Fab, V domains shown)
VH: B1 VH with F29H, V65T, D66G
VL: B1 VL with L32M, D50M, S52N, Q88M
notes: see m39
B22: anti-IL-6 Fab, heavy chain S56R (Fab, V domains shown)
VH: B1 VH with S56R, V65T, D66G
VL: B1 VL with L32M, D50M, S52N, Q88M
notes: see m39
B23: anti-IL-6 Fab, heavy chain I51R (Fab, V domains shown)
VH: B1 VH with I51R, V65T, D66G
VL: B1 VL with L32M, D50M, S52N, Q88M
notes: see m39
B24: anti-IL-6 Fab, heavy chain D62Q (Fab, V domains shown)
VH: B1 VH with D62Q, V65T, D66G
VL: B1 VL with L32M, D50M, S52N, Q88M
notes: see m39
B25: anti-IL-6 Fab, heavy chain L106F (Fab, V domains shown)
VH: B1 VH with V65T, D66G, L106F
VL: B1 VL with L32M, D50M, S52N, Q88M
notes: see m39
B26: anti-IL-6 Fab, heavy chain G66E (Fab, V domains shown)
VH: B1 VH with V65T, D66E
VL: B1 VL with L32M, D50M, S52N, Q88M
notes: see m39
B27: anti-IL-6 Fab, heavy chain S61A (Fab, V domains shown)
VH: B1 VH with S61A, V65T, D66G
VL: B1 VL with L32M, D50M, S52N, Q88M
notes: see m39
B28: anti-IL-6 Fab, heavy chain S35Q (Fab, V domains shown)
VH: B1 VH with S35Q, V65T, D66G
VL: B1 VL with L32M, D50M, S52N, Q88M
notes: see m39
B29: anti-IL-6 Fab, heavy chain G66D (Fab, V domains shown)
VH: B1 VH with V65T
VL: B1 VL with L32M, D50M, S52N, Q88M
notes: see m39
B30: anti-IL-6 Fab, heavy chain I108F (Fab, V domains shown)
VH: B1 VH with V65T, D66G, I108F
VL: B1 VL with L32M, D50M, S52N, Q88M
notes: see m39
B31: anti-IL-6 Fab, heavy chain S30Y (Fab, V domains shown)
VH: B1 VH with S30Y, V65T, D66G
VL: B1 VL with L32M, D50M, S52N, Q88M
notes: see m39
B32: anti-IL-6 Fab, heavy chain F29Y (Fab, V domains shown)
VH: B1 VH with F29Y, V65T, D66G
VL: B1 VL with L32M, D50M, S52N, Q88M
notes: see m39
B33: anti-IL-6 Fab, heavy chain R98G (Fab, V domains shown)
VH: B1 VH with V65T, D66G, R98G
VL: B1 VL with L32M, D50M, S52N, Q88M
notes: see m39
B34: anti-IL-6 Fab, heavy chain F27V (Fab, V domains shown)
VH: B1 VH with F27V, V65T, D66G
VL: B1 VL with L32M, D50M, S52N, Q88M
notes: see m39

molecular target: human IL-6 (human, UniProt P05231 30-212); test: SPR (Biacore), supernatant antibody on Protein A chip, IL-6 flowed, 37 C
Sequence (P05231 30-212 limits assumed): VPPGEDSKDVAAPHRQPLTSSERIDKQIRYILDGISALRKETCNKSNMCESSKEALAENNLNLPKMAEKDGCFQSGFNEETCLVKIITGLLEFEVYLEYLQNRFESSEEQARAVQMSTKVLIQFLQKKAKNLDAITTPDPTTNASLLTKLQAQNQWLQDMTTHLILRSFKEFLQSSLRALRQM

Kd | koff | kon | Binder
0.281 nM | 0.000551 s⁻¹ | 1.96e+06 M⁻¹ s⁻¹ | B1
0.31 nM | 0.000441 s⁻¹ | 1.42e+06 M⁻¹ s⁻¹ | B2
0.322 nM | 0.000384 s⁻¹ | 1.19e+06 M⁻¹ s⁻¹ | B3
0.237 nM | 0.000367 s⁻¹ | 1.55e+06 M⁻¹ s⁻¹ | B4

molecular target: recombinant human IL-6 (human, UniProt P05231 30-212); test: SPR, IL-6 on CM5 chip, Fab lysate, 25 C
Sequence (P05231 30-212 limits assumed): as above
Description: Three ranges of antigen density (100-150 RU, 300-400 RU, 400-600 RU) were obtained by using variable flow times for each chip channel, later blocked with ethanolamine. Supernatants of the 96-well filtered culture lysates were injected at 50 μL/min for 120 seconds. Fitting of dissociation curves (300 seconds) to single exponential decay curve was used for the determination of dissociation rates (koff). Chip surfaces were regenerated with 10 mM Glycine pH 1.7 solution injected at 50 μL/min during 60 seconds after every cycle of sample binding and dissociation.

koff | Binder
0.00494 s⁻¹ | B5
0.00418 s⁻¹ | B6
0.0054 s⁻¹ | B7
0.00377 s⁻¹ | B8
0.0409 s⁻¹ | B9
0.00525 s⁻¹ | B10
0.00397 s⁻¹ | B11
0.00381 s⁻¹ | B12
0.00375 s⁻¹ | B13
0.00394 s⁻¹ | B14
0.00369 s⁻¹ | B15
0.00541 s⁻¹ | B16
0.00393 s⁻¹ | B17
0.00401 s⁻¹ | B18
0.00392 s⁻¹ | B19
0.00575 s⁻¹ | B20
0.00524 s⁻¹ | B21
0.00509 s⁻¹ | B22
0.00315 s⁻¹ | B23
0.00434 s⁻¹ | B24
0.00601 s⁻¹ | B25
0.00505 s⁻¹ | B26
0.00604 s⁻¹ | B27
0.00354 s⁻¹ | B28
0.00607 s⁻¹ | B29
0.0034 s⁻¹ | B30
0.00352 s⁻¹ | B31
0.00511 s⁻¹ | B32
0.0048 s⁻¹ | B33
0.00405 s⁻¹ | B34
